The source of these data is publication PMC8561734, “Structural basis for SdgB- and SdgA-mediated glycosylation of staphylococcal adhesive proteins” (Acta Crystallographica. Section D, Structural Biology, 2021).

T1: SdgB (glycosyltransferase, Staphylococcus aureus USA300) (Staphylococcus aureus (strain USA300), UniProt A0A0H2XGN0 1-496)
T1 chain: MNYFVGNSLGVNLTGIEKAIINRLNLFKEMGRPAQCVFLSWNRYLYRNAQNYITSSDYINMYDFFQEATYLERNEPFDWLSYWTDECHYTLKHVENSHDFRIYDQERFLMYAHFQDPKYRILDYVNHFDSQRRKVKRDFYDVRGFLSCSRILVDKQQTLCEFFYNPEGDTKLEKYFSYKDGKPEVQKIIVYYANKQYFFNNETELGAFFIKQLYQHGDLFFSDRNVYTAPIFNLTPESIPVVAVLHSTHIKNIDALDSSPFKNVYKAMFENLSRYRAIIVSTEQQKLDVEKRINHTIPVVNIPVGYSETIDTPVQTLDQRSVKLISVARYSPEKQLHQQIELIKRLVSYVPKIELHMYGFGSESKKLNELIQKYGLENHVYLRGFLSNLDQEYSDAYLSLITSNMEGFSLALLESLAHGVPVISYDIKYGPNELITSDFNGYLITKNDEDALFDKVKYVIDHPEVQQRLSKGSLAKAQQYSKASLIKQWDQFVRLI

B1: SdgB (glycosyltransferase, Staphylococcus aureus USA300) (enzyme)
chain: T1 chain
notes: SdgB, O-GlcNAc glycosyltransferase of S. aureus strain USA300, gene SAUSA300_0550, cloned into pET-21a(+); theoretical monomer mass 59.5 kDa; A selenomethionine-substituted form was used only for phasing; also called SdgB_(quaternary); source: E. coli Rosetta 2(DE3)pLysS, purified (HiTrap Chelating, HiTrap Q, Superdex 200)
B2: SdgA (glycosyltransferase, Staphylococcus aureus USA300) (enzyme)
chain: MNYILGTILESKITGVEKAQINRLKLFKQHGISSKCVYVKWNPYSYTYAKQHQIENDVFTMYDYFQKAINYKKTKQVNWIQYWEKSCRYTLKFVENSNDVRIYDEEQFVMYAHFLDKQYHQLNYVNYFDHKRRKVKRELYDGRGFLSCSRILGEGQRIVLENYYTPNGEIVIQKYFDDIKGKNTLTKVILNEDQHQQFFDTEDELVQYFLHQLCKNNDQIILDRPHELGNVIAGLNQSIPVIVVLHSTHLSGAGNGIKSFYKTVFNNLTRYKAIVVSTEKQCQDISQYIENKIPVINIPVGYVANLKYQFDINQKEKNHIISIARLVENKQIKHQIEVIKQLVTKHPNIQLNIYGHGNGLSEYRQLVEDYHLSEHVKFHGFKTHINEEIAKAELMLSTSKMEGFGLAILESLSVGTPVISYDVDYGPSELIQDGFNGYLVPQGDINQMVEKVDQLLNNTQKLQQFSINSIESAQQYNATTISTKWQNILN
notes: SdgA, glycosyltransferase of S. aureus strain USA300, gene SAUSA300_0549, cloned into pET-21a(+); theoretical monomer mass 60.4 kDa; source: E. coli Rosetta 2(DE3)pLysS, purified (HiTrap Chelating, HiTrap Q, Superdex 200)
B3: diGlcNAcylated 9-mer SD-repeat peptide (DSDSDSDSD) (peptide)
peptide: DSDS(βGlcNAc)DSDS(βGlcNAc)D
notes: serine–aspartate repeat as in the SDR domains of staphylococcal SDR proteins (ClfA and others); no one parent protein is named; Asp1 not modelled in the structure; The peptide was added unmodified; also called GlcNAcylated SD-repeat peptide (9-mer); O-GlcNAcylated SDR peptide (9-mer); source: 9-mer peptide soaked into the SdgB crystal with UDP-GlcNAc and glycosylated in the crystal
B4: 5-mer SD-repeat peptide Asp-Ser-Asp-Ser-Asp (DSDSD) (peptide)
peptide: DSDSD
notes: serine–aspartate repeat as in the SDR domains of staphylococcal SDR proteins (ClfA and others); no one parent protein is named; only SDSD was modelled in the structure; also called 5-mer SDR peptide; source: synthetic peptide

Where no end group is shown, it is not given here. The star is where a group is joined. βGlcNAc = CC(=O)N[C@@H]1[C@@H](O)[C@H](O)[C@@H](CO)O[C@H]1*

The target of series [1] is T2, SdgB (Staphylococcus aureus, UniProt A0A0H2XGN0).
T2 construct: gene SAUSA300_0550; full-length, C-terminal His6 tag (pET-21a), E. coli Rosetta 2(DE3)pLysS; residues 1-496 compared
The series is described as follows: MALDI-MS O-GlcNAcyltransferase assay. Type of series: biochemical. As to conditions: 10 mM donor; acceptor DSD or DSDSD 3 mM, 5 uM enzyme, 20 mM HEPES pH 7.5, 150 mM NaCl, 1 mM MgCl2, 37 C, 2 h.

Series [2] addresses T2, SdgB. In words: X-ray crystallography. As to conditions: donor-binding site, closed form.
The target in series [3] is SdgA (glycosyltransferase, Staphylococcus aureus USA300) (Staphylococcus aureus (strain USA300)). In words: AUC; sedimentation velocity; SdgA at 4.5 µM; 30 000 rev/min.
Series [4] has the same target. The series is described as follows: AUC; sedimentation equilibrium; SdgB 1 µM, SdgA 4.5 µM; 20 mM HEPES pH 7.5, 150 mM NaCl, 1 mM MgCl2; 9000 and 15 000 rev/min; global fit to a monomer–dimer self-association model (dimer to monomers).
Series [5] concerns the molecule itself. The series is described as follows: SEC-MALS; SdgB 0.22 mg injected; Superdex 200 Increase 10/300 GL; 20 mM Tris–HCl pH 7.5, 200 mM NaCl; 0.5 ml/min.
Series [6] deals with the molecule itself. The series is described as follows: AUC; sedimentation equilibrium; SdgB 1 µM, SdgA 4.5 µM; 20 mM HEPES pH 7.5, 150 mM NaCl, 1 mM MgCl2; 9000 and 15 000 rev/min; global fit to a monomer–dimer self-association model (dimer to monomers).
Series [7] addresses T1, SdgB (glycosyltransferase, …). In words: SPR. (In general: In SPR one partner is held on a chip, and binding of the other changes the refractive index at the surface.)
Series [8] has as its target B1. The series is described as follows: SPR; SdgB immobilised on a PEG-based sensor chip (1062 RU); SdgA 0.39–25.0 µM as analyte; HBS-EP (10 mM HEPES pH 7.4, 150 mM NaCl, 0.03 mM EDTA, 0.005% Tween 20); 20°C; kinetic fit with Scrubber2. The conditions noted are these: both partners purified.
Series [9] concerns the target B1. In words: crystal structure; SdgB crystal (20 mM CaCl2, 85 mM trisodium citrate pH 5.6, 25.5% PEG 4000, 15% glycerol) soaked with 2.66 mM 9-mer SD-repeat peptide and 9.60 mM UDP-GlcNAc for 7.5 h. The conditions noted are these: both partners purified.
The target in series [10] is B1. In words: crystal structure; SdgB crystal (0.2 M MgCl2, 0.1 M Tris–HCl pH 8.5, 25% PEG 3350) quick-soaked with 6.14 mM UDP and 2.45 mM 5-mer peptide DSDSD for 30 min. The conditions noted are these: both partners purified.

For `CC(=O)N[C@H]1[C@@H](OP(=O)(O)OP(=O)(O)OC[C@H]2O[C@@H](n3ccc(=O)[nH]c3=O)[C@H](O)[C@@H]2O)O[C@H](CO)[C@@H](O)[C@@H]1O` [UDP-GlcNAc], the “MALDI-MS O-GlcNAcyltransferase assay” value in series [1] is given as “converted into mono-GlcNAcylated forms by SdgB but not by SdgA”.
Regarding `CC(=O)N[C@H]1C(O)O[C@H](CO)[C@@H](O)[C@@H]1O` (some centres unmarked) [GlcNAc], in series [2] (cleaved from soaked UDP-GlcNAc, with UDP and diGlcNAcylated 9-mer), the X-ray crystallography result is “distinct electron density for UDP and GlcNAc was observed in the cleft”.
As for `O=c1ccn([C@@H]2O[C@H](COP(=O)(O)OP(=O)(O)O)[C@@H](O)[C@H]2O)c(=O)[nH]1` [UDP], the X-ray crystallography result in [2] (complex with cleaved GlcNAc and diGlcNAcylated 9-mer, 2.5 A, also seen with DSDSD in a second structure (7VFM)) is “distinct electron density for UDP and GlcNAc was observed in the cleft”.
As a reminder, the stoichiometry N is a count of units in the complex or per binding partner. Broadly, the Kd is the equilibrium constant for the complex coming apart. High values mean lower affinity, low ones higher affinity. In series [3], “SdgA (glycosyltransferase, Staphylococcus aureus USA300) (from UniProt A0A0H2XI10 1-490) (enzyme)” gave a stoichiometry N of 2. The same molecule had a dissociation constant (Kd) in series [4] of 14100 nM.
For B1, the “stoichiometry N” value in series [5] came to 2. For the same molecule, binding in series [6] was put at a Kd of 926 nM.
One may read the koff as the first-order rate constant of dissociation. Low readings indicate slow dissociation, high ones fast dissociation. For the molecule B2, the koff in [7] stood at 0.000496 s⁻¹. This molecule also came in with a Kd in series [8] of 393 nM.
Consider B3, for which the binding result in series [9] is “binds”.
As to B4, in [10], the binding result was “binds”.
